Assay results reported in publication doi:10.1101/2025.07.29.667540.

Experiments:
CyPet-Ubc9 = CyPet-Ubc9 (UniProt P63279); assay: FRET or BRET
[1] = molecular target: CyPet-NS1 (influenza A virus) (UniProt P03496); assay: FRET or BRET
Sequence of UniProt P03496 (P03496 whole entry): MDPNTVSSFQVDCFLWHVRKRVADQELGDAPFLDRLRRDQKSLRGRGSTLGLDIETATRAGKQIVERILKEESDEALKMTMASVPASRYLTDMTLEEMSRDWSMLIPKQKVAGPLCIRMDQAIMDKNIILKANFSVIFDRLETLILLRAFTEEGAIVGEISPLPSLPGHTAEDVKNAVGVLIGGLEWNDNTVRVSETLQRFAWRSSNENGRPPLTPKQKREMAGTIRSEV

Sequence of UniProt P63279 (P63279 whole entry): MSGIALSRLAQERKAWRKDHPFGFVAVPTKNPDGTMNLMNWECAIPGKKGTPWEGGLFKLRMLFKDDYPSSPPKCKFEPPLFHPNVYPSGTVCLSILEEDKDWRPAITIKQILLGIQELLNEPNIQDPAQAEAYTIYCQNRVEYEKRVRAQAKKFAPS

Row | Substance | Kd (CyPet-Ubc9) | Kd [1]
1 | YPet-NS1 (from UniProt P03496 1-230) (natural protein) | 4.84 µM | 
2 | YPet-PIAS1 (from UniProt O75925 1-651) (enzyme) |  | 2.96 µM
